According to article PMC10397247:
Each block holds one binder with its values, some of them ahead of it.

Key:
Test in all cases: two-hybrid library CCNG1;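 also: natural log of median RNA to DNA barcode read ratio; higher means stronger binding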
[1] = target: T1, O15-bA
T1 chain: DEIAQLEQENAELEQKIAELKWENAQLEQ

[2] = target: T2, O11-bA
T2 chain: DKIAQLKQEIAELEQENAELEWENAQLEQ

[3] = target: T3, O16-bA
T3 chain: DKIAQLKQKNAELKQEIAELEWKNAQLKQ

[4] = target: T4, O9-bA
T4 chain: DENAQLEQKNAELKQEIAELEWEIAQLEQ

[5] = target: T5, O5-bA
T5 chain: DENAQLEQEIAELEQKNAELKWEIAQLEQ

[6] = target: T6, O3-bA
T6 chain: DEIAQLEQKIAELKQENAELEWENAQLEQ

[7] = target: T7, O13-bA
T7 chain: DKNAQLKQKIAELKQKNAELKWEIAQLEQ

[8] = target: T8, O8-bA
T8 chain: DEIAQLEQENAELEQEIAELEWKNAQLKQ

[9] = target: T9, O12-bA
T9 chain: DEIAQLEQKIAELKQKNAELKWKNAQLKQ

[10] = target: T10, O14-bA
T10 chain: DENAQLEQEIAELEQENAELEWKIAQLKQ

[11] = target: T11, O6-bA
T11 chain: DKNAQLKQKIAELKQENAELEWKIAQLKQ

[12] = target: T12, O4-bA
T12 chain: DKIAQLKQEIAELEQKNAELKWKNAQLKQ

[13] = target: T13, O2-bA
T13 chain: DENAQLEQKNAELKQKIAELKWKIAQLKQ

[14] = target: T14, O7-bA
T14 chain: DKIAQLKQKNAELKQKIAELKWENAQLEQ

[15] = target: T15, 4H2233-bN
T15 chain: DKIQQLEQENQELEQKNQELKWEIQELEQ

[16] = target: T16, 4H2859-bN
T16 chain: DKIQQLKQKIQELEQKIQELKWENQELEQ

[17] = target: T17, 4H3364-bN
T17 chain: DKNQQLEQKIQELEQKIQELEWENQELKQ

[18] = target: T18, 4H56-bN
T18 chain: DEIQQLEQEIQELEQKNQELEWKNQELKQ

[19] = target: T19, 4H3041-bN
T19 chain: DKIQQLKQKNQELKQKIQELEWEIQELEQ

[20] = target: T20, 4H235-bN
T20 chain: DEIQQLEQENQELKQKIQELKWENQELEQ

[21] = target: T21, 4H3297-bN
T21 chain: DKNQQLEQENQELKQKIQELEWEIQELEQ

[22] = target: T22, 4H570-bN
T22 chain: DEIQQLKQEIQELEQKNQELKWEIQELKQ

[23] = target: T23, 4H2503-bN
T23 chain: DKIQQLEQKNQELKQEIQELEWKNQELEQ

[24] = target: T24, 4H2692-bN
T24 chain: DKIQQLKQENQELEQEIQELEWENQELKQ

[25] = target: T25, 4H3381-bN
T25 chain: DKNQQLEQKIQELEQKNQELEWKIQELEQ

[26] = target: T26, 4H2588-bN
T26 chain: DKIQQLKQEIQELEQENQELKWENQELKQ

[27] = target: T27, 4H2839-bN
T27 chain: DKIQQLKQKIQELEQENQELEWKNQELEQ

[28] = target: T28, 4H492-bN
T28 chain: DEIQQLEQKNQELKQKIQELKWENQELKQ

[29] = target: T29, 4H2717-bN
T29 chain: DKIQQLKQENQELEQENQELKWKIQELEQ

[30] = target: T30, 4H349-bN
T30 chain: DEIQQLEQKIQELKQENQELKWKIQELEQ

[31] = target: T31, 4H932-bN
T31 chain: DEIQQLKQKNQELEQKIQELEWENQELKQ

[32] = target: T32, 4H2438-bN
T32 chain: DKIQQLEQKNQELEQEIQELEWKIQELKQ

[33] = target: T33, 4H741-bN
T33 chain: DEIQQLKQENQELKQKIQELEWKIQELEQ

[34] = target: T34, 4H754-bA
T34 chain: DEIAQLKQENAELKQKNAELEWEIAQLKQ

[35] = target: T35, 4H2223-bN
T35 chain: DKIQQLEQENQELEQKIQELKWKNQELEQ

[36] = target: T36, 4H477-bN
T36 chain: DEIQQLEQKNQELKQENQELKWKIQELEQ

[37] = target: T37, 4H730-bN
T37 chain: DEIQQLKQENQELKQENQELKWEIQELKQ

[38] = target: T38, 4H348-bN
T38 chain: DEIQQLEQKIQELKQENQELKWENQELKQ

[39] = target: T39, 4H3354-bN
T39 chain: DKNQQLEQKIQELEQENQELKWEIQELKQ

[40] = target: T40, 4H2162-bN
T40 chain: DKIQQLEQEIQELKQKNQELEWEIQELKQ

[41] = target: T41, 4H2473-bN
T41 chain: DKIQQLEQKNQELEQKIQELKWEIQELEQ

[42] = target: T42, 4H40-bN
T42 chain: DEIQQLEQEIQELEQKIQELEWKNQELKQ

[43] = target: T43, 4H796-bN
T43 chain: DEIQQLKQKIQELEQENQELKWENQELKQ

[44] = target: T44, 4H2931-bN
T44 chain: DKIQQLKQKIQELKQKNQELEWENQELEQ

[45] = target: T45, 4H3057-bN
T45 chain: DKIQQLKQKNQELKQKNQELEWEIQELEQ

[46] = target: T46, 4H2518-bN
T46 chain: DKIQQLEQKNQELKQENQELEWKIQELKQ

[47] = target: T47, 4H949-bN
T47 chain: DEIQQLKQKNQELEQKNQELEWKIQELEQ

[48] = target: T48, 4H2444-bN
T48 chain: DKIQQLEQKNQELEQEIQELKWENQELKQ

[49] = target: T49, 4H2915-bN
T49 chain: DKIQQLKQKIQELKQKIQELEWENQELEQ

[50] = target: T50, 4H2143-bN
T50 chain: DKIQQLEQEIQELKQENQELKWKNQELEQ

[51] = target: T51, 4H2585-bN
T51 chain: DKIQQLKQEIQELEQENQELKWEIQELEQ

[52] = target: T52, 4H264-bN
T52 chain: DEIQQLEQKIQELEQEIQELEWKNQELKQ

[53] = target: T53, O11-bN
T53 chain: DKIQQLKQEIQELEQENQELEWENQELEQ

[54] = target: T54, 4H3277-bN
T54 chain: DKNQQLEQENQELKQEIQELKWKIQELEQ

[55] = target: T55, 4H319-bN
T55 chain: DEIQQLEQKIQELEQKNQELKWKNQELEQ

[56] = target: T56, 4H2760-bN
T56 chain: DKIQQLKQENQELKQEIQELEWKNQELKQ

[57] = target: T57, 4H2253-bN
T57 chain: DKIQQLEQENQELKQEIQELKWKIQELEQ

[58] = target: T58, P3A
T58 chain: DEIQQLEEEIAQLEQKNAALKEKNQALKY

[59] = target: T59, P9A
T59 chain: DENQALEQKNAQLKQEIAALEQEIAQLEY

[60] = target: T60, P2A
T60 chain: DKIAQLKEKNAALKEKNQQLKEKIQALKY

[61] = target: T61, P8A
T61 chain: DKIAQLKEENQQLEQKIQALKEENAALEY

[62] = target: T62, P7A
T62 chain: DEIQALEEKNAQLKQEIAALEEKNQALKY

[63] = target: T63, P6A
T63 chain: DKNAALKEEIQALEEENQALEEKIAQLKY

[64] = target: T64, P1A
T64 chain: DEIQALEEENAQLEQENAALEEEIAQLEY

[65] = target: T65, P4A
T65 chain: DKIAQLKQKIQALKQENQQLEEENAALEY

[66] = target: T66, P5A
T66 chain: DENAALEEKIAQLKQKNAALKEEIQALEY

interaction score [1]: -0.971 | interaction score [2]: -0.526 | interaction score [3]: -0.988 | interaction score [4]: -0.659 | interaction score [5]: -0.78 | interaction score [6]: -0.525 | interaction score [7]: -1.12 | interaction score [8]: -1.31 | interaction score [9]: 2.25 | interaction score [10]: -0.951 | interaction score [11]: -0.9 | interaction score [12]: 2.16 | interaction score [13]: -0.637 | interaction score [14]: -0.686
Binder: DKIAQLKQEIAELEQENAELEWENAQLEQ [O11-bA]

interaction score [15]: -1.37 | interaction score [16]: -0.319 | interaction score [17]: -0.973 | interaction score [18]: -0.695 | interaction score [19]: 0.217 | interaction score [20]: 0.188 | interaction score [21]: -0.664 | interaction score [22]: -0.424 | interaction score [23]: -0.374 | interaction score [24]: -0.295 | interaction score [25]: -0.161 | interaction score [26]: -0.413 | interaction score [27]: -0.0339 | interaction score [28]: -0.438 | interaction score [29]: 0.125 | interaction score [30]: 0.196 | interaction score [31]: 0.299 | interaction score [32]: 0.267 | interaction score [33]: -0.465 | interaction score [34]: 0.173 | interaction score [35]: -0.138 | interaction score [36]: -0.266 | interaction score [37]: 0.137 | interaction score [38]: 0.129 | interaction score [39]: -2.78 | interaction score [40]: 0.354 | interaction score [41]: -0.596 | interaction score [42]: 0.442 | interaction score [43]: -0.462 | interaction score [44]: -0.53 | interaction score [45]: -0.303 | interaction score [46]: -0.0822 | interaction score [47]: -0.46 | interaction score [48]: -1.29 | interaction score [49]: 0.491 | interaction score [50]: 0.45 | interaction score [51]: -1.01 | interaction score [52]: -0.0625 | interaction score [53]: -1.88 | interaction score [54]: -0.382 | interaction score [55]: -1.38 | interaction score [56]: -0.843 | interaction score [57]: 0.598
Binder: DKIQQLEQEIQELKQENQELKWKNQELEQ [4H2143-bN]

interaction score [1]: -0.225 | interaction score [3]: -0.73 | interaction score [4]: 1.04 | interaction score [5]: -0.511 | interaction score [6]: 1.31 | interaction score [7]: -0.478 | interaction score [8]: 0.0711 | interaction score [9]: -1.51 | interaction score [10]: -0.435 | interaction score [11]: 0.643 | interaction score [12]: 1.27 | interaction score [13]: -0.795 | interaction score [14]: -0.372
Binder: DEIAQLEQKIAELKQKNAELKWKNAQLKQ [O12-bA]

interaction score [58]: -1.69 | interaction score [59]: -1.68 | interaction score [60]: 2.6 | interaction score [61]: -1 | interaction score [62]: -1.31 | interaction score [63]: -1.54 | interaction score [64]: -1.11 | interaction score [65]: -0.87 | interaction score [66]: -2.1
Binder: DEIQALEEENAQLEQENAALEEEIAQLEY [P1A]
